{
  "source": "patent US20020001587A1",
  "molecular_target": "human HER2 (ErbB2) (human) (UniProt P04626)",
  "assay": "cell-based or functional assay",
  "data": [
    {"substance": "murine monoclonal antibody 4D5 (ATCC CRL 10463)", "values": [
      {"measurement": "maximum inhibition of cell proliferation in SK-BR-3 cells", "value": 66, "unit": "%"}
    ]}
  ]
}
